Data published in patent US20250282885A1 (VST BIO, published 2025).

B1: R4M-P3-E06 (antibody, human IgG1, kappa, V domains shown)
VH: EVQLVESGGGVVQPGGSLRLSCAASGFTFSNYGMHWVRQAPGKGLEWVATISYDGTKKYYPDSVRGRFTISRDNSENMLYLQMDSLRLEDTAVIYCAKDLVSGSRYGFAFDSWGPGTLVTVSS
VL: DIVMTQSPLSLPVTLGQPASISCRSSQSLVHSDGNTYLNWFQQRPGQSPRRLIYKVSNRDSGVPDRFSGTGSGTDFTLKISRVEADDVGVYYCMQGTHWPPIFGQGTRLEIKR
notes: human IgG1 kappa from the phage campaign
B2: R3-P3-C11 (antibody, human IgG1, kappa, V domains shown)
VH: EVQLVESGGGLVQPGRSLRLACEASGFTFNNYAVHWVRQAPGKGLEWVAVISYDGTNKYYSDSMKGRFTISRDNSKNTLYLQINSLRVEDTAVYFCARGNYVRRDSFDIWGQGTMVTVSS
VL: DIQMTQSPPSLSASVGDRVTITCRASQSISSYLNWYQQKPGKAPKLLIYGASSLQSGVPLRFSGSGSGADFTLTISSLQPEDFATYYCQQSYISPITFGQGTRLEIKR
notes: as for B1

Legend:
human Sdc2 [1] = target: T1, human Sdc2 (human, UniProt P34741 19-144, limits assumed); assay: Octet tandem binning; saturating Ab f4 19844-R3-P3-C11
T1 construct: Antigen of the Octet tandem binning, loaded on biosensors at 100 nM; also called huSdc2; hSdc2
T1 sequence (P34741 19-144 limits assumed): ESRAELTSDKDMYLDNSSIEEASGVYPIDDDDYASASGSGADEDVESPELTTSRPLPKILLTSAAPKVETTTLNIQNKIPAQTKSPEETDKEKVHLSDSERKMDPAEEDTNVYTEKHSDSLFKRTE
Experimental: (§1) These studies were performed in a tandem binning assay format with human Sdc2, used as the antigen (concentration of 100 nM). Antigen loaded biosensors were dipped in a saturating solution of antibody (25 μg/ml) for 240 seconds followed by a competing antibody at 5 μg/ml for 180 seconds. […] Since saturation is not possible to achieve saturation with these clones, they are removed in as ligands, but retained in the analyte orientation in the analysis. A table summarizing the results of epitope binning of the 18 antibodies against huSdc2 is illustrated in FIG. 30. Data is normalized, where the raw binding signal from Competing Ab for a given Saturating Ab is divided by binding in the absence a […] (“buffer”). The threshold determining the matrix color is adjustable and dependent upon Ag-Ab binding. […] Table rows are based on similar looking binding profiles. Note that the coloration/cutoff is subjective, yellow color added to represent injections with ambiguous or very weak sandwiching signals. FIG. 31 illustrates a clustergram of the epitope binning studies, which was generated from the normalized binning data by importation into the statistical computing program R (The R Project for Statistical Computing: at r-project.org) and generation of a clustergram with the pvclust package.

human Sdc2 [2] = target: T1, human Sdc2; assay: Octet tandem binning; saturating Ab m7 19844-R3-P1-E07
Experimental: as §1

human Sdc2 [3] = target: T1, human Sdc2; assay: Octet tandem binning; saturating Ab f12 19838-6-N03-A
Experimental: as §1

human Sdc2 [4] = target: T1, human Sdc2; assay: Octet tandem binning; saturating Ab f3 19838-6N03-A
Experimental: as §1

human Sdc2 [5] = target: T1, human Sdc2; assay: Octet tandem binning; saturating Ab m3 19844-R3-P1-C02 (row boxed, self-self >0.09)
Experimental: as §1

human Sdc2 [6] = target: T1, human Sdc2; assay: Octet tandem binning; saturating Ab f6 19844-R3-P3-E09
Experimental: as §1

human Sdc2 [7] = target: T1, human Sdc2; assay: Octet tandem binning; saturating Ab m5 19844-R4M-P3-A12 (row boxed, self-self >0.09)
Experimental: as §1

human Sdc2 [8] = target: T1, human Sdc2; assay: Kd (human Sdc2), summary table of the mAbs
[9] = target: human Sdc2 on Human Umbilical Vein Endothelial Cells (HUVEC) (human, UniProt P34741 19-201); assay: cell-based or functional assay
Chain of human Sdc2 on Human Umbilical Vein Endothelial Cells (HUVEC) (P34741 19-201 limits assumed): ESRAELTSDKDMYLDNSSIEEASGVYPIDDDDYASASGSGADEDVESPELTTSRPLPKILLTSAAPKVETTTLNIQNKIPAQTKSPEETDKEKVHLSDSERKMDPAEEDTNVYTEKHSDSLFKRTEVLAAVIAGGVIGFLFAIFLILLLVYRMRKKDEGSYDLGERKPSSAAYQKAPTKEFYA

human Sdc2 [10] = target: T1, human Sdc2; assay: Octet tandem binning; Buffer in place of a saturating Ab
Experimental: as §1

human Sdc2 [11] = target: T1, human Sdc2; assay: Octet tandem binning; saturating Ab m6 19838-20H19-AA (marked non-binding ligand)
Experimental: as §1

human Sdc2 [12] = target: T1, human Sdc2; assay: Octet BLI, AHC sensor loaded with the antibody, huSdc2 as sample (curves huSdc2, 2000 and 1000, unit inferred); Full R2 0.9525
human Sdc2 [13] = target: T1, human Sdc2; assay: Octet BLI, heading box over the sensorgram
human Sdc2 [14] = target: T1, human Sdc2; assay: Octet tandem binning; saturating Ab m8 19844-R4M-P1-B01 (marked non-binding ligand)
Experimental: as §1

human Sdc2 [15] = target: T1, human Sdc2; assay: Octet tandem binning; saturating Ab m4 19844-R4M-P1-A10
Experimental: as §1

human Sdc2 [16] = target: T1, human Sdc2; assay: Octet tandem binning; saturating Ab f8 19844-R4M-P2-C02
Experimental: as §1

human Sdc2 [17] = target: T1, human Sdc2; assay: Octet tandem binning; saturating Ab f9 19838-6-E17-A
Experimental: as §1

human Sdc2 [18] = target: T1, human Sdc2; assay: Octet tandem binning; saturating Ab f10 19838-10-I12-A
Experimental: as §1

human Sdc2 [19] = target: T1, human Sdc2; assay: Octet tandem binning; saturating Ab m1 19838-20H19-AB
Experimental: as §1

human Sdc2 [20] = target: T1, human Sdc2; assay: Octet BLI, AHC sensor loaded with the antibody, huSdc2 as sample; Full R2 0.9525
Experimental: In order to characterize the binding affinity and in vivo/in vitro functional ability of the twelve clones generated by the previous studies and disclosed in Table 1, a series of assays were performed on each clone. These assays measured the affinity of each antibody clone for human, pig, and mouse Sdc2 using an Octet® binding assay system. Additionally, the functional ability of each clone to inhibit VEGFA-driven permeability (see Santiago, et al. (2021) J Am Heart Assoc. 10(18):e020521) was assessed in two therapeutic settings: a “prevention” study in which three concentrations of antibody (5 μg/ml, 10 μg/ml, 15 μg/ml, 20 μg/ml, and/or 40 μg/ml depending on the study) were pre-incubated for an hour before administration of 100 ng/ml of VEGFA, and a “treatment” study in which 3 hours of pre-treatment with 100 ng/ml VEGFA were followed by treatment with antibody at 20 μg/ml or 40 μg/ml. Results are shown for 8-G17 in FIG. 8 and FIG. 9, 20-H19-AB in FIG. 10 and FIG. 11 (FIG. 12 for monkey ECs), R3-P3-C11 in FIG. 13 and FIG. 14, R4M-P3-E06 in FIG. 15 and FIG. 16, R3-P3-E09 in FIG. 17 and FIG. 18, R3-P1-C02 in FIG. 19 and FIG. 20, R3-P3-A12 in FIG. 21 and FIG. 22, R4M-P3-A12 in FIG. 23 and FIG. 24, and R4M-P1-A10 in FIG. 25 and FIG. 26.

human Sdc2 [21] = target: T1, human Sdc2; assay: Octet tandem binning; saturating Ab f7 19844-R3-P3-A12
Experimental: as §1

human Sdc2 [22] = target: T1, human Sdc2; assay: Octet tandem binning; saturating Ab f11 19838-20-H19-A
Experimental: as §1

human Sdc2 [23] = target: T1, human Sdc2; assay: Octet tandem binning; saturating Ab m2 19838-8G17-A
Experimental: as §1

pig Sdc2 [24] = target: T2, pig Sdc2 (pig, UniProt F1S0L5 19-145); assay: Octet BLI, HIS1K sensor loaded with pigSdc2, antibody as sample; Full R2 0.9504
T2 construct: also called pSdc2

pig Sdc2 [25] = target: T2, pig Sdc2; assay: Octet BLI, heading box over the sensorgram
human Sdc2 [26] = target: T1, human Sdc2; assay: Octet BLI, heading box over the sensorgram; remark: listed apart in the source
human Sdc2 [27] = target: T1, human Sdc2; assay: Octet tandem binning; saturating Ab f5 19844-R4M-P3-E06
Experimental: as §1

human Sdc2 [28] = target: T1, human Sdc2; assay: Octet BLI, HIS1K sensor loaded with huSdc2, antibody as sample; Full R2 0.9738

Binder | raw competing-Ab binding signal (human Sdc2 [2]) | raw competing-Ab binding signal (human Sdc2 [3]) | raw competing-Ab binding signal (human Sdc2 [4]) | raw competing-Ab binding signal (human Sdc2 [5]) | raw competing-Ab binding signal (human Sdc2 [6]) | raw competing-Ab binding signal (human Sdc2 [7]) | Kd (human Sdc2 [8]) | % Inhibition of VEGFA-induced permeability at 24hrs (20ug/ml) [9] | raw competing-Ab binding signal (human Sdc2 [10]) | raw competing-Ab binding signal (human Sdc2 [11]) | raw competing-Ab binding signal (human Sdc2 [14]) | raw competing-Ab binding signal (human Sdc2 [15]) | raw competing-Ab binding signal (human Sdc2 [16]) | raw competing-Ab binding signal (human Sdc2 [17]) | raw competing-Ab binding signal (human Sdc2 [18]) | raw competing-Ab binding signal (human Sdc2 [19]) | raw competing-Ab binding signal (human Sdc2 [21]) | raw competing-Ab binding signal (human Sdc2 [22]) | raw competing-Ab binding signal (human Sdc2 [23]) | other results
B1 | 0.247 | 0.252 | 0.209 | 0.0913 | 0.025 | 0.223 | 448 nM | 95% | 0.256 | 0.251 | 0.25 | 0.116 | 0.0709 | 0.231 | 0.241 | 0.284 | 0.0799 | 0.311 | 0.183 | raw competing-Ab binding signal (human Sdc2 [1]): 0.0598; Kd (human Sdc2 [12]): 488 nM; Kd (human Sdc2 [13]): ~480 nM; koff (human Sdc2 [20]): 0.041 s⁻¹; kon (human Sdc2 [20]): 84000 M⁻¹ s⁻¹
B2 | 0.573 | 0.697 | 0.645 | 0.491 | 0.299 | 0.562 | 2.26 nM | 100% | 0.523 | 0.593 | 0.576 | 0.518 | 0.479 | 0.542 | 0.351 | 0.569 | -0.0267 | 0.585 | 0.629 | Kd (pig Sdc2 [24]): 10.2 nM; koff (pig Sdc2 [24]): 0.0417 s⁻¹; kon (pig Sdc2 [24]): 4.1e+06 M⁻¹ s⁻¹; Kd (pig Sdc2 [25]): ~10.2 nM; Kd (human Sdc2 [26]): ~2.26 nM; raw competing-Ab binding signal (human Sdc2 [27]): 0.61; Kd (human Sdc2 [28]): 2.26 nM; koff (human Sdc2 [28]): 0.00304 s⁻¹; kon (human Sdc2 [28]): 1.34e+06 M⁻¹ s⁻¹
